Test results from the supplement of paper PMC10567573.

B1: PPFIA4 (parent)
chain: VMTLPSDLRKHRRKLLSPVSREEN

Variants of: B1
Test: protein stability index of a GFP-peptide fusion (GPS, HEK-293T) (PSI 1-6); higher = more stable
Conditions: c terminus: a fixed tail appended
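Also: lentivirally expressed fusions sorted by FACS into six bins by GFP to DsRed ratio, PSI derived from sequencing read proportions per bin multiplied by bin number.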

Protein stability index of substitutions, site by site:
L15: Q 3.83 | S 4.94 | C 3.55 | H 4.02 | V 3.81 | P 4.11 | M 4.08 | I 3.9 | N 4.38 | D 4.63 | F 4.27 | W 3.5 | R 3.92 | G 4.39 | Y 4.06 | A 4.08 | E 4.22 | T 3.9 | K 3.94
L16: K 4.03 | S 4.43 | Y 3.85 | E 4.29 | I 3.41 | A 4.34 | H 3.89 | P 4.12 | V 3.84 | C 4.37 | M 4.07 | W 3.09 | T 4.31 | F 3.29 | R 3.99 | Q 3.75 | N 3.87 | G 4.43 | D 4.08
L8: A 3.43 | C 4.04 | N 3.74 | F 3.59 | S 4.73 | P 3.84 | D 4.28 | V 4.11 | T 4.24 | K 4.14 | E 4.35 | Y 3.24 | R 4.15 | H 3.9 | G 3.56 | I 4.07 | M 4.01 | Q 4.05 | W 3.22
T3: Q 2.85 | N 2.82 | A 3.92 | K 2.66 | V 2.95 | E 3.51 | R 3.07 | G 3.99 | F 1.74 | C 3.56 | H 3.52 | L 2.32 | P 3.51 | W 2.26 | Y 2.5 | I 2.65 | M 2.31 | D 4.12 | S 3.71
S17: R 3.77 | I 3.45 | H 3.93 | T 4.23 | M 3.48 | P 4.17 | D 4.29 | K 3.66 | G 3.9 | V 3.53 | N 3.88 | W 2.9 | Y 4.07 | Q 4.08 | A 4.24 | C 3.65 | E 3.86 | F 4.01 | L 3.73
S6: I 3.04 | F 3.57 | M 3.4 | D 4.02 | G 3.65 | Q 3.63 | E 3.85 | N 3.51 | Y 3.5 | C 3.6 | P 3.97 | R 3.41 | T 3.52 | L 3.38 | A 3.93 | K 3.24 | H 3.52 | V 2.4
S20: N 3.91 | I 3.84 | E 4.26 | D 4.01 | K 3.92 | A 3.98 | M 3.82 | G 4.22 | H 3.18 | L 3.44 | C 2.69 | F 2.54
K10: L 3.43 | D 4.32 | N 3.77 | Y 2.76 | R 3.95 | G 3.87 | F 2.75 | A 4.32 | C 3.52 | M 3.46 | Q 4.29 | V 2.96 | E 3.48 | P 4.05 | S 3.88 | T 4.02 | I 3.25 | H 3.58 | W 3.35
H11: Y 3.35 | S 3.75 | R 3.99 | I 3.12 | L 3.14 | M 3.49 | N 4.02 | G 3.79 | E 4.37 | T 3.79 | Q 2.93 | F 3.46 | V 3.35 | W 3.24 | P 4.4 | K 3.44 | C 3.69 | A 3.42 | D 4.37
P18: I 3.33 | F 2.83 | W 2.47 | N 3.72 | D 4.7 | Q 2.92 | R 3.08 | K 4.16 | S 4.07 | V 4.09 | T 4.31 | C 3.51 | M 3.83 | H 3.52 | L 3.44 | Y 3.42 | A 4.42 | G 4.12 | E 4.62
R12: L 2.95 | G 3.86 | M 3.47 | N 4.14 | Y 3.35 | W 2.73 | E 4.58 | Q 4.29 | T 4.21 | C 3.34 | V 3.41 | F 3.36 | S 4.12 | P 4.34 | H 3.92 | A 3.66 | D 4.68 | I 3.51 | K 3.81
K14: M 3.65 | W 2.43 | I 3.1 | G 4.33 | V 3.13 | N 3.9 | F 3.54 | E 4.07 | R 3.32 | Q 3.94 | L 3.48 | C 2.98 | S 3.79 | H 3.81 | T 4.01 | P 4.01 | Y 3.1 | A 3.61 | D 4.28
P5: N 3.47 | Q 3.4 | L 2.48 | W 2.25 | D 4.37 | Y 2.7 | H 2.67 | C 2.63 | A 3.06 | I 2.12 | S 3.08 | G 3.01 | K 3.4 | T 3.67 | F 2.1 | R 4 | V 2.76 | E 4.18 | M 2.47
D7: F 2.57 | R 3.31 | Y 3.2 | S 2.98 | I 2.72 | P 3.44 | H 3.15 | Q 3.3 | V 2.84 | C 2.86 | T 3.24 | N 3.39 | K 3.19 | W 2.92 | A 2.24 | G 3.62 | E 3.46 | L 2.33 | M 2.94
R9: M 3.53 | Y 3.41 | E 4.11 | W 3.49 | T 4 | K 4 | P 4.44 | A 4.01 | C 4.01 | V 3.82 | D 4.1 | F 3.31 | I 3.69 | G 4.46 | L 3.59 | N 4.18 | Q 4.49 | S 4.14 | H 3.9
L4: N 4.23 | V 3.77 | Q 4.02 | S 3.94 | F 3.4 | M 3.69 | D 4.14 | T 4.28 | E 4.37 | P 4.32 | K 4.44 | G 4.45 | W 4.09 | C 4.31 | A 4.27 | Y 3.45 | I 3.42 | R 3.25 | H 4.08
V19: F 2.85 | N 3.91 | H 4.11 | P 4.53 | R 3.69 | A 4.06 | Q 4.31 | Y 2.94 | G 4.31 | L 3.43 | S 4.21 | K 3.67 | W 2.52 | C 3.17 | I 3.8 | T 4.18 | M 2.98 | E 4.21 | D 4.57
R13: D 4.09 | K 3.5 | I 3.47 | G 3.91 | W 2.92 | Y 3.63 | L 4.05 | F 2.89 | E 4.59 | A 4.11 | C 3.49 | Q 4.27 | N 3.95 | P 4.33 | M 3.12 | V 3.78 | S 4.36 | T 3.98 | H 4.05
